Test results: patent US20260265403A1 (TJ BIOPHARMA SHANGHAI, published 2026)
Changes are numbered by the printed parent chain. Names may count otherwise.

T1: Human CD24 (human, UniProt P25063 27-59, limits assumed)
T1 chain (looked up): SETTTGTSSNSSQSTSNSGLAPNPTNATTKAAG

B1: Antibody No 4, lead clone of 4451H (HC N35G; LC K27A) (antibody, V domains shown)
VH: QVQLVQSGAEVKKPGASVKVSCKASGYDFTGYHMGWVRQAPGQGLEWMGEINPITSDKTFNQKFKSRVTMTRDTSISTAYMELSRLRSDDTAVYYCARRDYGTSLDYWGQGTTVTVSS
VL: DIQLTQSPSFLSASVGDRVTITCRASASISKYLAWYQQKPGKAPKLLIYAGSTLHSGIPSRFRGSGSGTEFTLTISSLQPEDFATYYCQQHNEYPITFGQGTKLEIK
B2: Antibody No 5, lead clone of 4451H (HC N35G; LC S30K) (antibody, V domains shown)
VH: B1 VH
VL: B1 VL with A27K, S30K
B3: Antibody No 6, lead clone of 4451H (HC N35G; LC L33G) (antibody, V domains shown)
VH: B1 VH
VL: B1 VL with A27K, L33G
B4: Antibody No 7, lead clone of 4451H (HC N35G; LC T97I) (antibody, V domains shown)
VH: B1 VH
VL: B1 VL with A27K, T97I
B5: Antibody No 8, lead clone of 4451H (HC T59Y; LC K27A, T97I) (antibody, V domains shown)
VH: B1 VH with G35N, T59Y
VL: B1 VL with T97I
B6: Antibody No 9, lead clone of 4451H (HC T59Y; LC S30K, T97I) (antibody, V domains shown)
VH: B1 VH with G35N, T59Y
VL: B1 VL with A27K, S30K, T97I
B7: Antibody No 10, lead clone of 4451H (HC T59Y; LC L33G, T97I) (antibody, V domains shown)
VH: B1 VH with G35N, T59Y
VL: B1 VL with A27K, L33G, T97I
B8: Antibody No 11, lead clone of 4451H (HC T59Y; LC K27A) (antibody, V domains shown)
VH: B1 VH with G35N, T59Y
VL: B1 VL
B9: Antibody No 12, lead clone of 4451H (HC T59Y; LC S30K) (antibody, V domains shown)
VH: B1 VH with G35N, T59Y
VL: B1 VL with A27K, S30K
B10: Antibody No 13, lead clone of 4451H (HC T59Y; LC L33G) (antibody, V domains shown)
VH: B1 VH with G35N, T59Y
VL: B1 VL with A27K, L33G
B11: Antibody No 14, lead clone of 4451H (HC T59Y; LC T97I) (antibody, V domains shown)
VH: B1 VH with G35N, T59Y
VL: B1 VL with A27K, T97I
B12: Antibody No 15 (4451HM15), lead clone of 4451H (HC N35G, T59Y; LC K27A) (antibody, V domains shown)
VH: B1 VH with T59Y
VL: B1 VL
B13: Antibody No 18, lead clone of 4451H (HC N35G, T59Y; LC T97I) (antibody, V domains shown)
VH: B1 VH with T59Y
VL: B1 VL with A27K, T97I
B14: VH2 + VL4 (humanized 4451) (antibody, V domains shown)
VH: B1 VH with G35N, M48I, R72V
VL: B1 VL with T22Y, A27K, K45R
notes: IgG expressed in HEK293

How the values were obtained:
Human CD24 [1] = biological target: T1, Human CD24; assay: SPR affinity ranking, 1:1 binding, analyte conc. 19.71 nM
Human CD24 [2] = biological target: T1, Human CD24; assay: SPR, second 1:1 binding column set
Human CD24 [3] = biological target: T1, Human CD24; assay: affinity ranking; antibody as ligand, Human CD24 as analyte

Row | Kd (Human CD24 [1]) | koff (Human CD24 [1]) | kon (Human CD24 [1]) | Kd (Human CD24 [2]) | koff (Human CD24 [2]) | kon (Human CD24 [2]) | Kd (Human CD24 [3]) | koff (Human CD24 [3]) | kon (Human CD24 [3]) | Binder
1 | 8.97 nM | 0.0107 s⁻¹ | 1.19e+06 M⁻¹ s⁻¹ |  |  |  |  |  |  | B1
2 | 7.89 nM | 0.0345 s⁻¹ | 4.37e+06 M⁻¹ s⁻¹ |  |  |  |  |  |  | B2
3 | 5.11 nM | 0.00796 s⁻¹ | 1.56e+06 M⁻¹ s⁻¹ | 3.86 nM | 0.00763 s⁻¹ | 1.98e+06 M⁻¹ s⁻¹ |  |  |  | B3
4 | 16.9 nM | 0.0141 s⁻¹ | 836000 M⁻¹ s⁻¹ |  |  |  |  |  |  | B4
5 | 15.8 nM | 0.0196 s⁻¹ | 1.24e+06 M⁻¹ s⁻¹ |  |  |  |  |  |  | B5
6 | 11.4 nM | 0.06 s⁻¹ | 5.27e+06 M⁻¹ s⁻¹ |  |  |  |  |  |  | B6
7 | 8.7 nM | 0.0175 s⁻¹ | 2.01e+06 M⁻¹ s⁻¹ |  |  |  |  |  |  | B7
8 | 14.1 nM | 0.0171 s⁻¹ | 1.21e+06 M⁻¹ s⁻¹ |  |  |  |  |  |  | B8
9 | 11.1 nM | 0.168 s⁻¹ | 1.52e+07 M⁻¹ s⁻¹ |  |  |  |  |  |  | B9
10 | 9.68 nM | 0.0237 s⁻¹ | 2.45e+06 M⁻¹ s⁻¹ |  |  |  |  |  |  | B10
11 | 8.3 nM | 0.0604 s⁻¹ | 7.28e+06 M⁻¹ s⁻¹ |  |  |  |  |  |  | B11
12 | 7.05 nM | 0.00755 s⁻¹ | 1.07e+06 M⁻¹ s⁻¹ | 3.98 nM | 0.00509 s⁻¹ | 1.28e+06 M⁻¹ s⁻¹ |  |  |  | B12
13 | 8.83 nM | 0.015 s⁻¹ | 1.7e+06 M⁻¹ s⁻¹ |  |  |  |  |  |  | B13
14 |  |  |  |  |  |  | 19.7 nM | 0.0229 s⁻¹ | 1.16e+06 M⁻¹ s⁻¹ | B14
